Data from paper PMC7511310, “Ancestral sequence reconstruction produces thermally stable enzymes with mesophilic enzyme-like catalytic properties” (Scientific Reports, 2020).

Tests used:
Experiment in all cases: A340 NADH formation, steady state, Michaelis-Menten fit
[1] = substrate: NC(=O)c1ccc[n+]([C@@H]2O[C@H](COP(=O)(O)OP(=O)(O)OC[C@H]3O[C@@H](n4cnc5c(N)ncnc54)[C@H](O)[C@@H]3O)[C@@H](O)[C@H]2O)c1; assay type: biochemical, Saccharomyces cerevisiae; settings: 25 °C, 50 mM HEPES pH 8.0, 100 mM KCl, 5 mM MgCl2, 0.2 mM D-3-IPM fixed, 25.0 °C, varied: cofactor
Source text: (§1) A340 NADH formation, steady state, Michaelis-Menten fit on S. cerevisiae IPMDH

[2] = substrate: CC(C)[C@H](C(=O)O)[C@@H](O)C(=O)O; assay type: biochemical, Saccharomyces cerevisiae; settings: 40 °C, 50 mM HEPES pH 8.0, 100 mM KCl, 5 mM MgCl2, 5 mM NAD+ fixed, 40.0 °C
Source text: as §1

[3] = substrate: NC(=O)c1ccc[n+]([C@@H]2O[C@H](COP(=O)(O)OP(=O)(O)OC[C@H]3O[C@@H](n4cnc5c(N)ncnc54)[C@H](O)[C@@H]3O)[C@@H](O)[C@H]2O)c1; assay type: biochemical, Thermus thermophilus; settings: 25 °C, 50 mM HEPES pH 8.0, 100 mM KCl, 5 mM MgCl2, 0.2 mM D-3-IPM fixed, 25.0 °C, varied: cofactor
Source text: (§2) A340 NADH formation, steady state, Michaelis-Menten fit on T. thermophilus IPMDH

[4] = substrate: CC(C)[C@H](C(=O)O)[C@@H](O)C(=O)O; assay type: biochemical, Thermus thermophilus; settings: 40 °C, 50 mM HEPES pH 8.0, 100 mM KCl, 5 mM MgCl2, 5 mM NAD+ fixed, 40.0 °C
Source text: as §2

[5] = substrate: NC(=O)c1ccc[n+]([C@@H]2O[C@H](COP(=O)(O)OP(=O)(O)OC[C@H]3O[C@@H](n4cnc5c(N)ncnc54)[C@H](O)[C@@H]3O)[C@@H](O)[C@H]2O)c1; assay type: biochemical, Bacillus subtilis; settings: 25 °C, 50 mM HEPES pH 8.0, 100 mM KCl, 5 mM MgCl2, 0.2 mM D-3-IPM fixed, 25.0 °C, varied: cofactor
Source text: (§3) A340 NADH formation, steady state, Michaelis-Menten fit on B. subtilis IPMDH

[6] = substrate: CC(C)[C@H](C(=O)O)[C@@H](O)C(=O)O; assay type: biochemical, Bacillus subtilis; settings: 40 °C, 50 mM HEPES pH 8.0, 100 mM KCl, 5 mM MgCl2, 5 mM NAD+ fixed, 40.0 °C
Source text: as §3

B1: S. cerevisiae IPMDH (Saccharomyces cerevisiae S288C) (protein)
chain: MSAPKKIVVLPGDHVGQEITAEAIKVLKAISDVRSNVKFDFENHLIGGAAIDATGVPLPDEALEASKKADAVLLGAVGGPKWGTGSVRPEQGLLKIRKELQLYANLRPCNFASDSLLDLSPIKPQFAKGTDFVVVRELVGGIYFGKRKEDDGDGVAWDSEQYTVPEVQRITRMAAFMALQHEPPLPIWSLDKANVLASSRLWRKTVEETIKNEFPTLKVQHQLIDSAAMILVKNPTHLNGIIITSNMFGDIISDEASVIPGSLGLLPSASLASLPDKNTAFGLYEPCHGSAPDLPKNKVNPIATILSAAMMLKLSLNLPEEGKAIEDAVKKVLDAGIRTGDLGGSNSTTEVGDAVAEEVKKILA
notes: recombinant from E. coli Rosetta2 (DE3), pET21c(+) NdeI-BamHI, purified by HiTrap-Q, HiTrap-Butyl and ResourceQ; no tag mentioned
Km [1]: 130 ± 10 µM | kcat [1]: 5.1 ± 0.1 s⁻¹ | Km [2]: 4.5 ± 0.7 µM | kcat [2]: 20 ± 1 s⁻¹

B2: T. thermophilus IPMDH (Thermus thermophilus HB8) (protein)
chain: MKVAVLPGDGIGPEVTEAALKVLRALDEAEGLGLAYEVFPFGGAAIDAFGEPFPEPTRKGVEEAEAVLLGSVGGPKWDGLPRKIRPETGLLSLRKSQDLFANLRPAKVFPGLERLSPLKEEIARGVDVLIVRELTGGIYFGEPRGMSEAEAWNTERYSKPEVERVARVAFEAARKRRKHVVSVDKANVLEVGEFWRKTVEEVGRGYPDVALEHQYVDAMAMHLVRSPARFDVVVTGNIFGDILSDLASVLPGSLGLLPSASLGRGTPVFEPVHGSAPDIAGKGIANPTAAILSAAMMLEHAFGLVELARKVEDAVAKALLETPPPDLGGSAGTEAFTATVLRHLA
notes: extant thermophilic wild type; homodimer
Km [3]: 2.2 ± 0.3 µM | kcat [3]: 0.37 ± 0.01 s⁻¹ | Km [4]: 2.3 ± 0.8 µM | kcat [4]: 2.4 ± 0.1 s⁻¹

B3: B. subtilis IPMDH (Bacillus subtilis subsp. subtilis str. 168) (protein)
chain: MKKRIALLPGDGIGPEVLESATDVLKSVAERFNHEFEFEYGLIGGAAIDEHHNPLPEETVAACKNADAILLGAVGGPKWDQNPSELRPEKGLLSIRKQLDLFANLRPVKVFESLSDASPLKKEYIDNVDFVIVRELTGGLYFGQPSKRYVNTEGEQEAVDTLFYKRTEIERVIREGFKMAAARKGKVTSVDKANVLESSRLWREVAEDVAQEFPDVKLEHMLVDNAAMQLIYAPNQFDVVVTENMFGDILSDEASMLTGSLGMLPSASLSSSGLHLFEPVHGSAPDIAGKGMANPFAAILSAAMLLRTSFGLEEEAKAVEDAVNKVLASGKRTRDLARSEEFSSTQAITEEVKAAIMSENTISNV
notes: as for B1
Km [5]: 110 ± 10 µM | kcat [5]: 2.8 ± 0.1 s⁻¹ | Km [6]: 0.78 ± 0.11 µM | kcat [6]: 9.4 ± 0.2 s⁻¹
